Assays:
Test in all cases: cell-based or functional assay
[1] = molecular target: HLA-A*02:01 presenting MAGE-A4 286-294 peptide (…) (human)
[2] = molecular target: HLA-A*02:01 presenting MAGE-A4 286-294 peptide (…) (human); remark: listed apart in the source
[3] = molecular target: HLA-A*02:01 presenting FN1 2182-2190 peptide (…) (human)
[4] = molecular target: HLA-A*02:01 presenting AOX1 795-803 peptide (…) (human)
[5] = molecular target: HLA-A*02:01 presenting PSME2 145-153 peptide (…) (human)
[6] = molecular target: HLA-A*02:01 presenting PCDHGC3 337-345 peptide (…) (human)
[7] = molecular target: HLA-A*02:01 presenting SMIM11A 4-12 peptide (…) (human)
[8] = molecular target: HLA-A*02:01 presenting RABGAP1L 408-416 peptide (…) (human)
[9] = molecular target: HLA-A*02:01 presenting MRPL37 334-342 peptide (…) (human)
[10] = molecular target: HLA-A*02:01 presenting PLEKHH2 790-798 peptide (…) (human)
[11] = molecular target: HLA-A*02:01 presenting NBAS 2063-2071 peptide (…) (human)
[12] = molecular target: HLA-A*02:01 presenting TEP1 2156-2164 peptide (…) (human)

B1: bsAb6043 (bispecific antibody, V domains shown)
VH 1: QVQLVESGGGLVKPGGSLRLSCAASGFTFSEYYLTWIRQAPGKGLDWIAYISSSGYNIYYADSVKDRFTISRDNGKNSLFLQMNNLRAEDTAVYFCAREGVTDGMDVWGQGTTVTVSS
VH 2: EVQLVESGGGLVQPGRSLRLSCAASGFTFDDYSMHWVRQAPGKGLEWVSGISWNSGSKGYADSVKGRFTISRDNAKNSLYLQMNSLRAEDTALYYCAKYGSGYGKFYHYGLDVWGQGTTVTVSS
VL: DIQMTQSPSSLSASVGDRVTITCRASQSIDTFLNWYQQKPGKVPKLLIYAASNLESGVPSRFSGSGSGTVFTLTISRLQPEDFATYYCQQSYSIPPITFGQGTRVEIK
notes: Only variable regions are tied to the bispecific; also called MAGE-A4×CD3 (7221G) bispecific antibody
Question: What does the source list for B1?
Answer: Fold Activation, NF-κB luciferase, Jurkat/NF-κB Luc + IM-9 [1]: 1.8 fold; Fold Activation, NF-κB luciferase, Jurkat/NF-κB Luc + U266 [1]: 0.9 fold; Fold Activation, NF-κB luciferase, Jurkat + IM-9, with 2 nM mAb5705 (anti-CD28) [2]: 1.1 fold; Fold Activation, NF-κB luciferase, Jurkat + U266, with 2 nM mAb5705 (anti-CD28) [2]: 0.9 fold; EC50 (M), Jurkat/NF-κB-Luc reporter with pulsed T2 cells [3]: > 2e-08 M; Fold change, Jurkat/NF-κB-Luc reporter with pulsed T2 cells [3]: 1 fold; EC50 (M), Jurkat/NF-κB-Luc reporter with pulsed T2 cells [4]: 3.3e-10 M; Fold change, Jurkat/NF-κB-Luc reporter with pulsed T2 cells [4]: 40.4 fold; EC50 (M), Jurkat/NF-κB-Luc reporter with pulsed T2 cells [5]: > 2e-08 M; Fold change, Jurkat/NF-κB-Luc reporter with pulsed T2 cells [5]: 1 fold; EC50 (M), Jurkat/NF-κB-Luc reporter with pulsed T2 cells [6]: > 2e-08 M; Fold change, Jurkat/NF-κB-Luc reporter with pulsed T2 cells [6]: 1 fold; EC50 (M), Jurkat/NF-κB-Luc reporter with pulsed T2 cells [7]: > 2e-08 M; Fold change, Jurkat/NF-κB-Luc reporter with pulsed T2 cells [7]: 1.2 fold; EC50 (M), Jurkat/NF-κB-Luc reporter with pulsed T2 cells [8]: > 2e-08 M; Fold change, Jurkat/NF-κB-Luc reporter with pulsed T2 cells [8]: 1.1 fold; EC50 (M), Jurkat/NF-κB-Luc reporter with pulsed T2 cells [9]: > 2e-08 M; Fold change, Jurkat/NF-κB-Luc reporter with pulsed T2 cells [9]: 1.2 fold; EC50 (M), Jurkat/NF-κB-Luc reporter with pulsed T2 cells [10]: > 2e-08 M; Fold change, Jurkat/NF-κB-Luc reporter with pulsed T2 cells [10]: 1.9 fold; EC50 (M), Jurkat/NF-κB-Luc reporter with pulsed T2 cells [11]: > 2e-08 M; Fold change, Jurkat/NF-κB-Luc reporter with pulsed T2 cells [11]: 1.6 fold; EC50 (M), Jurkat/NF-κB-Luc reporter with pulsed T2 cells [12]: > 2e-08 M; Fold change, Jurkat/NF-κB-Luc reporter with pulsed T2 cells [12]: 1.9 fold
